Results reported in publication PMC3792407, “Overexpression of chloroplast NADPH-dependent thioredoxin reductase in Arabidopsis enhances leaf growth and elucidates in vivo function of reductase and thioredoxin domains” (Frontiers in Plant Science, 2013).

Biological target: the molecule itself
Experiment: SDS-PAGE of unheated samples with Western blot; soluble leaf proteins extracted in 50 mM HEPES, 5 mM NaCl, 10 mM MgCl2 with or without 2 mM DTT; solubilised in SDS buffer with or without mercaptoethanol and kept on ice (0°C), not heated; 10% acrylamide gel; blot with anti-NTRC or anti-NTRB antibody

Protein | stoichiometry N
NADPH-dependent thioredoxin reductase C (NTRC), endogenous in wild-type Arabidopsis leaves (enzyme, UniProt O22229 68-529, looked up, NTRC of Arabidopsis thaliana (At2g41680), mature chloroplast protein without the putative transit peptide of 67 amino acids (ChloroP); calculated mass of mature NTRC 50890 Da, band of about 50 kDa; printed residue numbers count on the precursor with the transit peptide; The cleavage site of the transit peptide is only a ChloroP prediction (67 amino acids); also called plastid-localized …) ATANSPSSSSSGGEIIENVVIIGSGPAGYTAAIYAARANLKPVVFEGYQMGGVPGGQLMTTTEVENFPGFPDGITGPDLMEKMRKQAERWGAELYPEDVESLSVTTAPFTVQTSERKVKCHSIIYATGATARRLRLPREEEFWSRGISACAICDGASPLFKGQVLAVVGGGDTATEEALYLTKYARHVHLLVRRDQLRASKAMQDRVINNPNITVHYNTETVDVLSNTKGQMSGILLRRLDTGEETELEAKGLFYGIGHSPNSQLLEGQVELDSSGYVLVREGTSNTSVEGVFAAGDVQDHEWRQAVTAAGSGCIAALSAERYLTSNNLLVEFHQPQTEEAKKEFTQRDVQEKFDITLTKHKGQYALRKLYHESPRVILVLYTSPTCGPCRTLKPILNKVVDEYNHDVHFVEIDIEEDQEIAEAAGIMGTPCVQFFKNKEMLRTISGVKMKKEYREFIEANK | 2
full-length NTRC with C454S/C457S in the TRXd active site (OE-SGPS) (enzyme, Arabidopsis thaliana, UniProt O22229 68-529, looked up, signal peptide in the construct (chloroplast transit peptide, putative 67 amino acids, ChloroP); full-length NTRC of Arabidopsis thaliana (At2g41680) with both redox cysteines of the TRXd motif CGPC changed to serine; in the leaf extract it runs as the mature protein of about 50 kDa; also called NTRC-SGPS; source: transgenic Arabidopsis (ntrc knockout background, CaMV 35S promoter, pGWR8), …) ATANSPSSSSSGGEIIENVVIIGSGPAGYTAAIYAARANLKPVVFEGYQMGGVPGGQLMTTTEVENFPGFPDGITGPDLMEKMRKQAERWGAELYPEDVESLSVTTAPFTVQTSERKVKCHSIIYATGATARRLRLPREEEFWSRGISACAICDGASPLFKGQVLAVVGGGDTATEEALYLTKYARHVHLLVRRDQLRASKAMQDRVINNPNITVHYNTETVDVLSNTKGQMSGILLRRLDTGEETELEAKGLFYGIGHSPNSQLLEGQVELDSSGYVLVREGTSNTSVEGVFAAGDVQDHEWRQAVTAAGSGCIAALSAERYLTSNNLLVEFHQPQTEEAKKEFTQRDVQEKFDITLTKHKGQYALRKLYHESPRVILVLYTSPTSGPSRTLKPILNKVVDEYNHDVHFVEIDIEEDQEIAEAAGIMGTPCVQFFKNKEMLRTISGVKMKKEYREFIEANK | 2
full-length NTRC with C217S/C220S in the NTRd active site (OE-SAIS) (enzyme, Arabidopsis thaliana, UniProt O22229 68-529, looked up, signal peptide in the construct (chloroplast transit peptide, putative 67 amino acids, ChloroP); full-length NTRC of Arabidopsis thaliana (At2g41680) with both redox cysteines of the NTRd motif CAIC changed to serine; in the leaf extract it runs as the mature protein of about 50 kDa; source: transgenic Arabidopsis (ntrc knockout background, CaMV 35S promoter, pGWR8), soluble leaf extract) ATANSPSSSSSGGEIIENVVIIGSGPAGYTAAIYAARANLKPVVFEGYQMGGVPGGQLMTTTEVENFPGFPDGITGPDLMEKMRKQAERWGAELYPEDVESLSVTTAPFTVQTSERKVKCHSIIYATGATARRLRLPREEEFWSRGISASAISDGASPLFKGQVLAVVGGGDTATEEALYLTKYARHVHLLVRRDQLRASKAMQDRVINNPNITVHYNTETVDVLSNTKGQMSGILLRRLDTGEETELEAKGLFYGIGHSPNSQLLEGQVELDSSGYVLVREGTSNTSVEGVFAAGDVQDHEWRQAVTAAGSGCIAALSAERYLTSNNLLVEFHQPQTEEAKKEFTQRDVQEKFDITLTKHKGQYALRKLYHESPRVILVLYTSPTCGPCRTLKPILNKVVDEYNHDVHFVEIDIEEDQEIAEAAGIMGTPCVQFFKNKEMLRTISGVKMKKEYREFIEANK | 2
